Changes are numbered by the printed parent chain.
T1: HACE1 full length, wild type (HACE1 FL) (human), Q8IYU2
T1 chain: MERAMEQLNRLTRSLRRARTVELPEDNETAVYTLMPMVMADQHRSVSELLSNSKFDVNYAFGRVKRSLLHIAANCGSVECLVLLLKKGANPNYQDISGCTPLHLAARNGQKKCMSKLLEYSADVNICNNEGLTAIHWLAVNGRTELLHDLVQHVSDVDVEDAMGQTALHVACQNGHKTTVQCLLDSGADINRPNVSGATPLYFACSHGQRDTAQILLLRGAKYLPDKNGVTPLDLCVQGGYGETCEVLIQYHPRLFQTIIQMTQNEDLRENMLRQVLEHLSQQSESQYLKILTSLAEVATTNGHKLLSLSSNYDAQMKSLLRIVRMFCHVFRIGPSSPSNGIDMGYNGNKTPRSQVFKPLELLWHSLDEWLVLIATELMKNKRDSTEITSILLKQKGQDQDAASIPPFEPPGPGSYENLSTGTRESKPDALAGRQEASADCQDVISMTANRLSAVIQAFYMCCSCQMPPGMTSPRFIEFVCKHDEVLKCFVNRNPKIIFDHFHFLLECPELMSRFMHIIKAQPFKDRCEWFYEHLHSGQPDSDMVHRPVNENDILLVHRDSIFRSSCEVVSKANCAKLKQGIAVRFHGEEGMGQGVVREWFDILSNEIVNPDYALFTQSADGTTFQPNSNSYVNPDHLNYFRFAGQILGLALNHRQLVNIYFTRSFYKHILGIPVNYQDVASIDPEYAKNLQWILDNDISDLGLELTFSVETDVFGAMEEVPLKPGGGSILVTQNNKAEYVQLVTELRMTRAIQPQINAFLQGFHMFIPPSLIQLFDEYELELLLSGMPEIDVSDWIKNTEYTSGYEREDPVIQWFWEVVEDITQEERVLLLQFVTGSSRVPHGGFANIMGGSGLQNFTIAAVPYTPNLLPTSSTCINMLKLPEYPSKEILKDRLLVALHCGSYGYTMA

B1: HACE1 full length, wild type (HACE1 FL), Q8IYU2 1-909 (enzyme)
chain: T1 chain
B2: HACE1 L8D (enzyme, human, UniProt Q8IYU2 1-909, looked up)
chain: T1 chain with L8D
notes: HACE1, human, full-length variant; source: E. coli BL21(DE3), purified (IMAC, tag removal, SEC); not shown: His6 (pSKB2) or His10-tandem Z (pN-HZ10-ZZ(3)), N-terminal, cleaved
B3: HACE1 L704D (enzyme, human, UniProt Q8IYU2 1-909, looked up)
chain: T1 chain with L704D
notes: HACE1, human, full-length variant (HECT N-lobe); source: E. coli BL21(DE3), purified (IMAC, tag removal, SEC); not shown: His6 (pSKB2) or His10-tandem Z (pN-HZ10-ZZ(3)), N-terminal, cleaved
B4: HACE1 L8A (enzyme, human, UniProt Q8IYU2 1-909, looked up)
chain: T1 chain with L8A
notes: HACE1, human, full-length variant; also called Leu8 substituted with alanine; source: E. coli BL21(DE3), purified (IMAC, tag removal, SEC); not shown: His6 (pSKB2) or His10-tandem Z (pN-HZ10-ZZ(3)), N-terminal, cleaved
B5: HACE1 T12E (enzyme, human, UniProt Q8IYU2 1-909, looked up)
chain: T1 chain with T12E
notes: HACE1, human, control phospho-mimetic variant compared with the wild-type dimer ('FL'); source: E. coli BL21(DE3), purified (IMAC, tag removal, SEC); not shown: His6 (pSKB2) or His10-tandem Z (pN-HZ10-ZZ(3)), N-terminal, cleaved
B6: HACE1 L15A (enzyme, human, UniProt Q8IYU2 1-909, looked up)
chain: T1 chain with L15A
notes: HACE1, human, full-length variant; also called Leu15 substituted with alanine; source: E. coli BL21(DE3), purified (IMAC, tag removal, SEC); not shown: His6 (pSKB2) or His10-tandem Z (pN-HZ10-ZZ(3)), N-terminal, cleaved
B7: HACE1 L11A (enzyme, human, UniProt Q8IYU2 1-909, looked up)
chain: T1 chain with L11A
notes: HACE1, human, full-length variant; also called Leu11 substituted with alanine; source: E. coli BL21(DE3), purified (IMAC, tag removal, SEC); not shown: His6 (pSKB2) or His10-tandem Z (pN-HZ10-ZZ(3)), N-terminal, cleaved

Legend:
[1] = molecular target: T1, HACE1 full length, wild type (HACE1 FL) …; experiment: SEC; analytical SEC, 20 μM HACE1, 50 mM HEPES (pH 8.0), 150 mM NaCl, 1 mM DTT, Superdex 200 Increase 3.2/300, 4 °C; details: remark: other sources report otherwise
[2] = molecular target: T1, HACE1 full length, wild type (HACE1 FL) …; experiment: mass photometry; HACE1 samples at 20–40 nM in 25 mM HEPES (pH 8.0), 150 mM NaCl; One^MP mass photometer, BSA calibration; details: remark: other sources report otherwise
[3] = molecular target: the molecule itself; experiment: as above

| Binder | stoichiometry N [1] | stoichiometry N [2] | binding result [3] |
| --- | --- | --- | --- |
| B1 | 2 | 2 |  |
| B2 |  |  | binds |
| B3 |  |  | binds |
| B4 |  |  | binds |
| B5 |  |  | binds |
| B6 |  |  | binds |
| B7 |  |  | binds |
